Data taken from article PMC4899739.

Target: chicken type I interleukin-1 receptor (chicken)
Assay: SPR; BIAcore 3000, 25 °C; chicken IL-1RI (5 μg/ml in 10 mM sodium acetate, pH 5.5) immobilised on a CM5 chip by amine coupling (~370 RU); IL-1β or mutant flowed at 30 μl/min in 10 mM HEPES pH 7.2, 150 mM NaCl, 0.001% Tween-20; 90 s association and dissociation; 1:1 Langmuir fit

Point of comparison: “wild-type chicken interleukin-1 beta (ligand)”, Kd 0.12 nM. Against it:
- chicken interleukin-1 beta mutant E118K (ligand) — 3.1-fold higher, 0.37 nM
- chicken interleukin-1 beta mutant T117A (ligand) — 1.9-fold higher, 0.23 nM
